# From patent US10973880B2, “Compositions and methods for treating pulmonary hypertension” (Acceleron Pharma Inc., priority 2016, dated 2021)
# What was measured:
# [1] = test system: rat model of pulmonary arterial hypertension (PAH), monocrotaline (MCT) induced; test: monocrotaline rat model of pulmonary arterial hypertension; type: in vivo, Sprague Dawley rats
# Method: The effects of an ActRIIA-mFc fusion protein (ActRIIA-mFc homodimer as described in Example 1), an ALK4-Fc-ActRIIB-Fc heterodimer (as described in Examples 12 and 13), and sildenafil (a phosphodiesterase-5 inhibitor approved for the treatment of PAH) were examined in a rat model of pulmonary arterial hypertension (PAH). In this model, Sprague Dawley rats received a […] injection of monocrotaline (MCT) to induce PAH 24 hours prior to start of therapy.
# Rats were separated into different treatment groups (10 mice per group): 1) treatment with MCT (60 mg/kg administered i.p. as a single dose at day 1 of study) and Tris buffered saline (i.p. as 1 ml/kg, every three days) (vehicle treatment group), 2) treatment with an ActRIIA-mFc polypeptide (10 mg/kg administered i.p. every three days) and MCT (60 mg/kg administered i.p. as a single dose at day 1 of study), 3) treatment with an ALK4-Fc:ActRIIB-Fc heterodimer (10 mg/kg administered i.p. every three days) and MCT (60 mg/kg administered i.p. as a single dose at day 1 of study), 4) treatment with sildenafil (30 mg/kg administered orally twice daily) and MCT (60 mg/kg administered i.p. as a single dose at day 1 of study), and 5) control rats (Tris buffered saline administered i.p. as 1 ml/kg, every three days). Rats were treated for 28 days. Body weights were recorded prior to first dose on Day 1 and then weekly throughout the study.
# On day 28, rats were anesthetized by an intraperitoneal injection of ketamine/xylazine (80/10 mg/kg). An incision was made in the neck, and a jugular vein was isolated and ligated anteriorly. A fluid-filled pressure catheter was introduced into the right jugular vein to measure pulmonary artery pressure (PAP). Another incision was made in the inguinal region, and femoral artery was isolated and ligated anteriorly. A Millar pressure catheter was introduced into a femoral artery to measure systolic arterial pressure, diastolic pressure, and heart rate. Mean arterial pressure and right PAP were monitored using the Notocord HEM (Croissy sur Seine, Frnace) v3.5 data capture system for approximately 5-10 minutes until stable measurements were obtained. During the measurements, rats were maintained at approximately 37° C. on a heating pad and body temperature was monitored throughout the procedure with a rectal temperature probe. At the conclusion of the procedure, rats were euthanized, and the hearts and lungs were removed. The entire heart was weighed. Next, the atria were removed and the left ventricle with septum (LV+S) was separated from the right ventricle (RV). The ventricles were weighed separately. Hypertrophy was assessed, in part, by calculating RV/LV+S. The lungs were also weighed.
# Similar trends were observed on vessel muscularity based on histopathologic scoring. After staining tissue samples to detect αSMA/elastin, 100 pulmonary arterioles, between 10 μm and 50 μm in size, per animal were categorized as non-muscularized, partially muscularized, or completely muscularized. Pulmonary arterioles from vehicle treated rats were determined to be 62.3% completely muscularized, 36.4% partially muscularized, and 1.4% non-muscularized. […] Histopathological scoring of smooth muscle hypertrophy of pulmonary arterioles were also recorded as follows: 0 (normal), 1 (minimal), 2 (mild), 3 (moderate), or 4 (marked).
# [2] = target: T1, GDF8 (Homo sapiens, UniProt O14793); test: A-204 reporter gene assay, pGL3(CAGA)12 luciferase; type: cell-based; parameters: host or cells: exogenous factor added to A-204 cells (human rhabdomyosarcoma); conditions: Example 13
# T1 sequence (O14793 267-375): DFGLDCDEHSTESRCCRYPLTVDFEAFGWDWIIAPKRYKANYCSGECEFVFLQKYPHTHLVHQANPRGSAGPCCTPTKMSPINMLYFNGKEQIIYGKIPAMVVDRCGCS
# From the text: Day 1: Split A-204 cells into 48-well plate. […]
# (§1) In addition, an A-204 Reporter Gene Assay was used to evaluate the effects of ALK4-Fc:ActRIIB-Fc heterodimer and ActRIIB-Fc:ActRIIB-Fc homodimer on signaling by activin A, activin B, GDF11, GDF8, BMP10, and BMP9. Cell line: Human Rhabdomyosarcoma (derived from muscle). Reporter vector: pGL3(CAGA)12 (as described in Dennler et al, 1998, EMBO 17: 3091-3100). The CAGA12 motif is present in TGFβ responsive genes (PAI-1 gene), so this vector is of general use for factors signaling through Smad2 and 3. An exemplary A-204 Reporter Gene Assay is outlined below. • Day 1: Split A-204 cells into 48-well plate. • Day 2: A-204 cells transfected with 10 ug pGL3(CAGA)12 or pGL3(CAGA)12(10 ug)+pRLCMV (1 ug) and Fugene. • Day 3: Add factors (diluted into medium+0.1% BSA). Inhibitors need to be pre-incubated with Factors for about one hr before adding to cells. About six hrs later, cells are rinsed with PBS and then lysed.
# (§2) Following the above steps, a Luciferase assay was performed.
# [3] = target: T2, BMP10 (Homo sapiens, UniProt O95393); test: A-204 reporter gene assay, pGL3(CAGA)12 luciferase; type: cell-based; parameters: host or cells: exogenous factor added to A-204 cells (human rhabdomyosarcoma); conditions: Example 13
# T2 sequence (O95393 317-424): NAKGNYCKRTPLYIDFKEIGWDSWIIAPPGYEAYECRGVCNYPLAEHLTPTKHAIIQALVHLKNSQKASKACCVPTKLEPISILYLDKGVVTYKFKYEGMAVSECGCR
# From the text: as §1, §2
# [4] = target: T3, BMP9 (Homo sapiens, UniProt Q9UK05); test: A-204 reporter gene assay, pGL3(CAGA)12 luciferase; type: cell-based; parameters: host or cells: exogenous factor added to A-204 cells (human rhabdomyosarcoma); conditions: Example 13
# T3 sequence (Q9UK05 320-429): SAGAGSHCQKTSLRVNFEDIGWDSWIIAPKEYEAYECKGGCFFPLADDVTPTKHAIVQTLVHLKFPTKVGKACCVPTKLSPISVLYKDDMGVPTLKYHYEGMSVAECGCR
# From the text: as §1, §2
# [5] = target: T4, activin B (Homo sapiens, UniProt P09529); test: A-204 reporter gene assay, pGL3(CAGA)12 luciferase; type: cell-based; parameters: host or cells: exogenous factor added to A-204 cells (human rhabdomyosarcoma); conditions: Example 13
# T4 sequence (P09529 293-407): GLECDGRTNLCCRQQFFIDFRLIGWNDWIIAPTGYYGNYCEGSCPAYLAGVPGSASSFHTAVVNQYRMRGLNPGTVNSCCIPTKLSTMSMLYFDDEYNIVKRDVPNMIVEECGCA
# From the text: as §1, §2
molecule,measurement,setting,value
"ALK4-Fc:ActRIIB-Fc heterodimer: heteromeric complex of extracellular domains of human ActRIIB and human ALK4, each separately fused to an Fc domain with a linker (protein, left off: a dimerising Fc or GST; small tags and cut ends, heteromeric complex of extracellular domains of human ActRIIB and human ALK4, each separately fused to an Fc domain with a linker) chain 1: SGPRGVQALLCACTSCLQANYTCETDGACMVSIFNLDGMEHHVRTCIPKVELVPAGKPFYCLSSEDLRNTHCCYTDYCNRIDLRVPSGHLKEPEHPSMWGPVE chain 2: GRGEAETRECIYYNANWELERTNQSGLERCEGEQDKRLHCYASWRNSSGTIELVKKGCWLDDFNCYDRQECVATEENPQVYFCCCEGNFCNERFTHLPEAGGPEVTYEPPPTAPT",improvement in body weight,"[1]; 28 days, compared to monocrotaline treated rats, proteins 10 mg/kg i.p. every three days, sildenafil 30 mg/kg orally twice daily",+5.1%
same,decrease of right heart hypertrophy,"[1]; day 28, RV/LV+S, compared to monocrotaline treated rats",39.6%
same,decrease of lung weight,"[1]; day 28, compared to monocrotaline treated rats",19.0%
same,reduction of elevated PAP,"[1]; day 28, compared to monocrotaline treated rats, same dosing",44.6%
same,effect in reducing vascular muscularization compared with sildenafil,[1]; monocrotaline-induced model,greater effect
same,inhibition of GDF8 signaling,[2],potent inhibitors
same,inhibition of BMP10 signaling pathway compared to ActRIIB-Fc:ActRIIB-Fc homodimer,[3],significantly reduced
same,inhibition of BMP9 signaling pathway compared to ActRIIB-Fc:ActRIIB-Fc homodimer,[4],significantly reduced
same,inhibition of activin B signaling,[5],potent inhibitors
